{
  "source": "the DeepSol protein solubility set",
  "data": [
    {"assay": "soluble on expression in E. coli; label from the status in PepcDB or PDB records", "values": [
      {"sequence": "CDAGRAKDKANEMMQGGNSLFGAMEGGTKEQVVLDMIDLGEHDAKTLLECEYETLGIHVSGNPLDEFKEEIKGFKNLVKSIDIEELEIGS", "soluble on expression in E. coli": "not soluble"},
      {"sequence": "MPKVNLYATFRDLTGKSQLELPGATVGEVLENLVRAYPALKEELFEGEGLAERVSVFLEGRDVRYLQGLSTPLSPGATLDLFPPVAGGGFERTFGAFPPWLLERYLEEWGGTREGEGVYRLPGAVVRFREVEPLKVGSLSIPQLRVEVEGEEAERWFERIAFAASRGGG", "soluble on expression in E. coli": "soluble"},
      {"sequence": "MSLNRVSHPLTYENFKTSSAEQESKITKLLENLYKGGKRIVKLRNDPTGVTHAIRLDNDIFKLNVYIKNIDTSKSNLRYTEGYLQSLTNILTRAKEIAIQGASGTYESDDKKMISKEVNALLEDVVAIANAKGPDGYSIFSGTKIDSEAFKVTRENKISKTSKDGAGPQIIKVEYNGNQAEKKTEVYNDIHMSNNYPGNVIFFLQNQNIISSINTNGFAVKENTKIYIDNIEIGLTAGDTALDIVAKINESSAPVEASIDPVLNSLSIKTTTPHQIWITEEKESNVLQTLGILTKNNDTKLPPYNLSSSTEVRSRSIFDALIELRDTLYNNKEELVGSRSLAEIDESLKRLLISVADLGAKENRLDRSYERISKEAADMKEDMIQYTDEGHHHHHH", "soluble on expression in E. coli": "soluble"},
      {"sequence": "MGSDKIHHHHHHMTWHEVNDVIVITLPEIFDMNANLGYLTREKNECMYEIENNIITKVIAIGEIRSLVQVSVINNKQMIVQFLNDSRPVEQWKREEIVKYIHEWFDLDNDLTPFYEMAKADPLLKMPARKFYGLRVIGIPDLFEALCWGVLGQQINLAFAYSLKKQFVEAFGDSIEWNGKKYWVFPPYERIARLTPTDLADIKMTVKKSEYIIGIARLMASGELSREKLMKMNFKDAEKNLIKIRGIGPWTANYVLMRCLRFPTAFPIDDVGLIHSIKILRNMNRKPTKDEILEISVPWKEWQSYATFYLWRVLY", "soluble on expression in E. coli": "not soluble"},
      {"sequence": "GPGSMSFYRTKKVIINSLFSDSSWYCTFRFRNPMTSQRRSCHEGIPSGRVTGNSVTLLSEMRENNAIGVEAVGKERKRPDAMTVLSNVFRTNPAALRLHRELTICIASGETERASDLASVLAGLVKRTTRLDDIEQKCAEEGGRSKVPNDPVPVVGEETVEFLTSNVVRGVSSQSRLESIEILHNDAPGAPYLGEKVAEAAEVKDSEPLPFWKNPDALRLTLLESAFEMALADDNENPLQPGSVEADCLEKERMEILDAYLKREGKRWELQKAAVARAIVATVKDLGVVPEDIHAALQAEGELRLNGSDKRFNVLKHCNIIVRGEVPEVMELQMKGTATRNVEASVSQELDVLINRMSSTGTPLSQRDKDLALFELVMSKSKMRYVVGLHRELQVALDTAPALRKLAVEHRAKSGSVLFVERALKMLNKVAPDGSETTAEDVECIDTISTPVLPFTFMLKMCLWFEAPVAM", "soluble on expression in E. coli": "not soluble"},
      {"sequence": "GAMVVSPAGADRRIPTWASRVVSGLARDRPVVVTKEDLTQRLTEAGCGRDPDSAIRELRRIGWLVQLPVKGTWAFIPPGEAAISDPYLPLRSWLARDQNAGFMLAGASAAWHLGYLDRQPDGRIPIWLPPAKRLPDGLASYVSVVRIPWNAADTALLAPRPALLVRRRLDLVAWATGLPALGPEALLVQIATRPASFGPWADLVPHLDDLVADCSDERLERLLSGRPTSAWQRASYLLDSGGEPARGQALLAKRHTEVMPVTRFTTAHSRDRGESVWAPEYQLVDELVVPLLRVIGKA", "soluble on expression in E. coli": "soluble"},
      {"sequence": "SYHLDTTAPPPTNLSTLPNNTLFHLWRPRAHILPAEGQIGDPCAHYTDPSTGLFHVGFLHDGDGIAGATTANLATYTDTSDNGSFLIQPGGKNDPVAVFDGAVIPVGVNNTPTLLYTSVSFLPIHWSIPYTRGSETQSLAVARDGGRRFDKLDQGPVIADHPFAVDVTAFRAPFVFRSARLDVLLSLDEEVARNETAVQQAVDGWTEKNAPWYVAVSGGVHGVGPAQFLYRQNGGNASEFQYWEYLGEWWQEATNSSWGDEGTWAGRWGFNFETGNVLFLTEEGHDPQTGEVFVTLGTEGSGLPIVPQVSSIHDMLWAAGEVGVGSEQEGAKVEFSPSMAGFLDWGFSAYAAAGKVLPASSAVSKTSGVEVDRYVSFVWLTGDQYEQADGFPTAQQGWTGSLLLPRELKVQTVENVVDNELVREEGVSWVVGESDNQTATLRTLGITIARETKAALLANGSVTAEEDRTLQTAAVVPFAQSPSSKFFVLTAQLEFPASARSSPLQSGFEILASELERTAIYYQFSNESLVVDRSQTSAAAPTNPGLDSFTESGKLRLFDVIENGQEQVETLDLTVVVDNAVVEVYANGRFALSTWARSWYDNSTQIRFFHNGEGEVQFRNVSVSEGLYNAWPER", "soluble on expression in E. coli": "soluble"},
      {"sequence": "TQYWDFCFREPDVAATDQEYREELDRLFVQAVKRQLVTDVELGSYLSGGMDSGSIAAVAAAEHPYIKTFTCGFDLNSASGIELGFDERSKAEYMSYCFKTEHYEMVLKAGDMERILPHVACHLEEPRVGQSYPNFFAAKLASRFVKVVLSGAGGDELFAGYPWRYYRAVVNDDFEHYVDKYYNFWQRLLPNSELKRVFAPIAGEVEHVWTRDIFRNVFRHHADQLYRPEDYINHSLYFEAKTFLHGLLVVEDKLSMAHGLETRVPFLDNDLVEFAMRCPIRLKLNNLAEVVKINENETGNKVRKFFEKNRDGKTILREVMNHRLPADISKAEKQGFSAPDASWFKGESLEFVRRKLLDGHSPLYEIMDAATVRELVNEHLGGIRNRRLLIWSLLSVDAWMRQT", "soluble on expression in E. coli": "not soluble"},
      {"sequence": "MMSDQKDEEEYSHSSNRSEDEDEERTIDNEINRSPNKSYKLGNIIGNGSFGVVYEAICIDTSEQVAIKKVLQDPQYKNRELMIMKNLNHINIIYLKDYYYTESFKKNEKNIFLNVVMEYIPQTVHKYMKYYSRNNQALPMFLVKLYSYQLCRALSYIHSKFICHRDLKPQNLLIDPRTHTLKLCDFGSAKNLLAGQRSVSYICSRFYRAPELMLGSTNYTTHIDLWSLGCIIAEMILGYPIFSGQSSVDQLVRIIQVLGTPTEDQLKEMNPNYADIKFPDVKSKDLRKVFPKGTPDEAINLITQFLKYEPLKRLNPIEALADPFFDELRDPCIKLPKYIDKLPELFNFCKEEIQEMSMECRRKIIPKNVYEEFLMVDE", "soluble on expression in E. coli": "not soluble"},
      {"sequence": "MAHHHHHHMAERSSTLVINEAKTKNRLSDSLRSPTDRTREHLISHRNFSSVLESAADCTSASSTPDLQEEEDVQHKRALDLFSATPHSGEFSPLIEWLLRRGERGDVGAPTASQKDGDEYTQASFFNEDYIMNLCAAATAVLGKEPALLDLEVVAHDTLVVVGDIHGQFQDLYTSVLCQQYDRRRCNPEGRDCRFLFMGDYVDRGPHSLEVVLLLLALKVEYPTLVYLTRGNHEEEKTSRVYGFLTEATSSLGAAAGTAVWSAVNKVFLDLPLAAIVQTLYMRFFVTHGGLSPGLQNVEVICALERHNYSCGNITAAEDDLIAGLLWSDPTNEVAMYKRNPRGCGFLFGPSASNRFCADNNFDFICRAHQVAMEGYMWTHNDRVLTVFSAPNYCGVNRNKGAVLLIKGYSRRPIVQQYDSAEKSEAAPARKTDFAFADMFA", "soluble on expression in E. coli": "not soluble"},
      {"sequence": "MAHHHHHHMLDDLKTAYTPAVASKICYVASQLRIDATKGQPYTAVLEATMTAEGEQAMEVASLARIVHSCLVLRSGHLHEVLFTFIPFLREKAGTMDAVTTAVLINAYGRSGVHHPGLYKALCDNGATVLKDPRVPLAHIANVAYAVSRVKFLHPALMLTLRDHALRKVAEASPIISLTVLDAFTELRQIDDDLFNAYEQRLLGQLNELQAPLMASLVSCVVRAGRGKAEVMESLGARTVAIADTFDAASIAKVTNAYYEADVASEDVLGALAERACKVAADFRADEIATVLNALSAFDLFDAELFPLLASRLVALHRQGGYVDVADAAVILSSFAAVQERNDELIYVCTQLFAAYPGVAMDPAVRVNALWACASLNVHNEAQTKMLEEVRATPSLVMWESKTDTLPKAKATLEERTRFLAKVYGITISSSGAR", "soluble on expression in E. coli": "soluble"},
      {"sequence": "MGSDKIHHHHHHMQRYDAVISGAGPAGCSAALSLAQKGRRVLLIDKARFPREKICGDGVTAASTELLEEMGVLELLRQRPGSLTEFRGATFVSPGGTVVQGRILRNGHLSGSSYVIPRMVLDDSLVSRVKEHSSITFLDKTTVTGLVMDGDRARGVATSAGEFCGRIIIAADGAYSPIAKQLDLWNRDKRQQGFAMRAWFSGVEGLGDSIELCYDKAMLPGYGWIFPAGEQRANVGVFLLPRFADQRSTKRLFKSFVKENAFAAARLKNAVMEPGSLKSWPLPFGSFAGRRGRGNVLLAGDAGSFIDPLTGEGIYYALKTGRYAAEAVANALERNDESAALTRYEQLWRGEFSGRVYFPGYAFQHFMNNSWFVDTFMRYTAKKQHRADLLADVVAHNRKRRELFKLLNPFY", "soluble on expression in E. coli": "not soluble"}
    ]}
  ]
}
